The target of the first assay is tissue factor (TF) (human) (UniProt P13726). The assay can be described thus: SPR (ProteOn), Fab captured on anti-penta His, TF analyte, 1:1 fit.
Chain of tissue factor (TF) antigen (P13726 33-251 limits assumed): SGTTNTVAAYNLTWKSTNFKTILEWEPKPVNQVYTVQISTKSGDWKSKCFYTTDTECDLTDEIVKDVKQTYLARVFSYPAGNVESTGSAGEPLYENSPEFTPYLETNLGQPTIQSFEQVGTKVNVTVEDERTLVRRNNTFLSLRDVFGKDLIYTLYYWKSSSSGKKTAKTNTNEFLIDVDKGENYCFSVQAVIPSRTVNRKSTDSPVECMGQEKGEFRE
Chain of tissue factor (TF) (human) (P13726 33-251 limits assumed): as above
Turning to “H1L1 Fab heterodimer of LCCA set 6037 (D3H44 Fab; H: L124A; L: V133W)”, the Kd worked out at 0.13 nM and the change in KD vs wild type, -(log(KD design)-log(KD wt)) turned out to be 0.07.
Substance “H1L1 Fab heterodimer of LCCA set 9041 (D3H44 Fab; H: A139C_C233S; L: F116C_C214S)” registered a Kd of 0.14 nM.
On to “H1L1 Fab heterodimer of LCCA set 9043 (D3H44 Fab; H: F122C_C233S; L: S121C_C214S)”, for which the Kd is 0.16 nM.
Same read-out and setting: the result for “H1L1 Fab heterodimer of LCCA set 9044 (D3H44 Fab; H: P175C_C233S; L: S162C_C214S)” reads 0.18 nM.
In turn, “H1L1 Fab heterodimer of LCCA set 9052 (D3H44 Fab; H: A139G_F174V_V190A; L: S131T_L135F_S176F_T178F)” gave a dissociation constant (Kd) of 0.14 nM and a change in KD vs wild type, -(log(KD design)-log(KD wt)) of 0.06.
Substance “H1L1 Fab heterodimer of LCCA set 9068 (D3H44 Fab; H: F174G; L: S131T_S176F_T178F)” showed an equilibrium dissociation constant (Kd) of 0.13 nM and a change in KD vs wild type, -(log(KD design)-log(KD wt)) of 0.07.
The matching figures for “H1L1 Fab heterodimer of LCCA set 9070 (D3H44 Fab; H: F174G; L: S131T_S176F_T178Y)”: 0.16 nM and 0.
The matching figures for “H1L1 Fab heterodimer of LCCA set 9071 (D3H44 Fab; H: F174V; L: S131T_S176F_T178F)”: 0.21 nM and -0.12.
The matching figures for “H1L1 Fab heterodimer of LCCA set 9073 (D3H44 Fab; H: F174V; L: S131T_S176F_T178Y)”: 0.14 nM and 0.04.
Turning to “H1L1 Fab heterodimer of LCCA set 9100 (D3H44 Fab; H: L124A_Q179K; L: Q124E_V133W_T180E)”, the Kd came to 0.12 nM and the change in KD vs wild type, -(log(KD design)-log(KD wt)) was determined as 0.1.
The matching figures for “H1L1 Fab heterodimer of LCCA set 9102 (D3H44 Fab; H: L124A_S186K; L: Q124E_V133W_T180E)”: 0.15 nM and 0.02.
The matching figures for “H1L1 Fab heterodimer of LCCA set 9175 (D3H44 Fab; H: L124E_L143D_K145M; L: Q124K_V133G_S176R)”: 0.25 nM and -0.21.
The matching figures for “H1L1 Fab heterodimer of LCCA set 9205 (D3H44 Fab; H: L124E_L143D_K145M; L: V133G_S176R_T178K)”: 0.28 nM and -0.25.
Substance “H1L1 Fab heterodimer of LCCA set 9213 (D3H44 Fab; H: L124E_L143D_K145T; L: Q124K_V133G_S176R)” gave a Kd of 0.2 nM and a change in KD vs wild type, -(log(KD design)-log(KD wt)) of -0.11.
The matching figures for “H1L1 Fab heterodimer of LCCA set 9259 (D3H44 Fab; H: L124E_L143E_K145M; L: Q124K_V133G_S176R_T178K)”: 0.24 nM and -0.19.
The matching figures for “H1L1 Fab heterodimer of LCCA set 9351 (D3H44 Fab; H: L124R_D146N_Q179K; L: Q124E_V133G_S176D_T178E_T180E)”: 0.2 nM and -0.1.
For the substance “H1L1 Fab heterodimer of LCCA set 9364 (D3H44 Fab; H: L124R_D146N_Q179K; L: V133G_S176D_T180E)”, the Kd is 0.15 nM and the change in KD vs wild type, -(log(KD design)-log(KD wt)) was found to be 0.01.
In turn, “H1L1 Fab heterodimer of LCCA set 9447 (D3H44 Fab; H: L124R_Q179K; L: V133G_S176D_T180E)” showed a dissociation constant (Kd) of 0.28 nM and a change in KD vs wild type, -(log(KD design)-log(KD wt)) of -0.26.
The matching figures for “H1L1 Fab heterodimer of LCCA set 9491 (D3H44 Fab; H: L124R_S186K; L: V133G_S176D_T180E)”: 0.24 nM and -0.19.
The matching figures for “H1L1 Fab heterodimer of LCCA set 9566 (D3H44 Fab; H: L124W_L143F; L: V133A)”: 0.25 nM and -0.21.

Another assay concerns the target tissue factor (TF) antigen (UniProt P13726). The assay can be described thus: SPR (ProteOn), Fab captured on anti-penta-His, TF as analyte, 1:1 fit.
“D3H44 Fab heterodimer, H L124A_Q179K / L Q124E_V133W_T180E” came in with a Change in KD with respect to wild type (-(log(KD design) - log(KD wt))) of 0.1 and a Kd of 0.12 nM.
The matching figures for “D3H44 Fab heterodimer, H L124A_S186K / L Q124E_V133W_T180E”: 0.02 and 0.15 nM.
The substance “D3H44 Fab heterodimer, H L143A_Q179K / L Q124E_V133Y_T180E” yielded a Change in KD with respect to wild type (-(log(KD design) - log(KD wt))) of -0.23 and a dissociation constant Kd of 0.27 nM.
The matching figures for “D3H44 Fab heterodimer, H L143E_K145T / L Q124R”: -0.25 and 0.28 nM.
In turn, “D3H44 Fab heterodimer, H L143E_K145T / L Q124R_T178R” yielded a Change in KD with respect to wild type (-(log(KD design) - log(KD wt))) of 0.15 and a Kd of 0.11 nM.
With “D3H44 Fab heterodimer, H L143E_K145T_Q179E_S188L / L Q124R_T178R”, the Change in KD with respect to wild type (-(log(KD design) - log(KD wt))) was -0.34 and the Kd came to 0.34 nM.
The matching figures for “D3H44 Fab heterodimer, H L143E_K145T_S188L / L Q124R_Q160K_T178R”: -0.19 and 0.24 nM.
The matching figures for “D3H44 Fab heterodimer, H L143K / L Q124E_V133D_S176L”: -0.25 and 0.28 nM.
The matching figures for “D3H44 Fab heterodimer, H L143K_D146G / L Q124E_V133D”: -0.22 and 0.25 nM.
For “D3H44 Fab heterodimer, H L143R / L Q124E_V133E”, the Change in KD with respect to wild type (-(log(KD design) - log(KD wt))) was -0.09 and the Kd worked out at 0.2 nM.
The matching figures for “D3H44 Fab heterodimer, H L143R / L Q124E_V133E_Q160M”: -0.21 and 0.25 nM.
The matching figures for “D3H44 Fab heterodimer, H L143R / L Q124E_V133E_S176L”: -0.25 and 0.28 nM.
The matching figures for “D3H44 Fab heterodimer, H Q179K / L Q124E_Q160E_T178E”: -0.27 and 0.29 nM.
“D3H44 Fab heterodimer, H Q179K / L Q124E_S131T_T178F_T180E” displayed a Change in KD with respect to wild type (-(log(KD design) - log(KD wt))) of 0.13 and a Kd of 0.12 nM.
Consider “D3H44 Fab heterodimer, H Q179K / L Q124E_S131T_T178Y_T180E”, for which the Change in KD with respect to wild type (-(log(KD design) - log(KD wt))) was -0.01 and the dissociation constant (Kd) stood at 0.16 nM.
The matching figures for “D3H44 Fab heterodimer, H Q179K / L Q124E_S176L_T180E”: 0.28 and 0.08 nM.
The matching figures for “D3H44 Fab heterodimer, H Q179K / L Q124E_T178E_T180E”: 0.1 and 0.13 nM.
The matching figures for “D3H44 Fab heterodimer, H Q179K / L S131E”: 0.05 and 0.14 nM.
For “D3H44 Fab heterodimer, H Q179R / L Q124E_Q160E_T178E”, the Change in KD with respect to wild type (-(log(KD design) - log(KD wt))) was 0.16 and the Kd was found to be 0.11 nM.
Take “D3H44 Fab heterodimer, H Q179R / L Q124E_S131T_T178F_T180E”: the Change in KD with respect to wild type (-(log(KD design) - log(KD wt))) was 0.14 and the Kd amounted to 0.11 nM.
With “D3H44 Fab heterodimer, H Q179R / L Q124E_S131T_T178Y_T180E”, the Change in KD with respect to wild type (-(log(KD design) - log(KD wt))) is 0.07 and the Kd came to 0.13 nM.
The matching figures for “D3H44 Fab heterodimer, H Q179R / L Q124E_S176L_T180E”: -0.02 and 0.17 nM.
The matching figures for “D3H44 Fab heterodimer, H Q179R / L Q124E_T178E”: 0.04 and 0.14 nM.
The matching figures for “D3H44 Fab heterodimer, H Q179R / L Q124E_T178E_T180E”: -0.01 and 0.16 nM.
As for “D3H44 Fab heterodimer, H S186K / L Q124E_S131T_T178F_T180E”, the Change in KD with respect to wild type (-(log(KD design) - log(KD wt))) was -0.03 and the Kd stood at 0.17 nM.
The matching figures for “D3H44 Fab heterodimer, H S186K / L Q124E_S131T_T178Y_T180E”: 0.09 and 0.13 nM.
The matching figures for “D3H44 Fab heterodimer, H S186K / L Q124E_S176L_T180E”: 0.03 and 0.15 nM.
The matching figures for “D3H44 Fab heterodimer, H S186K / L Q124E_T178E”: 0.01 and 0.15 nM.
Substance “D3H44 Fab heterodimer, H S186K / L Q124E_T178E_T180E” came in with a Change in KD with respect to wild type (-(log(KD design) - log(KD wt))) of 0.02 and a dissociation constant Kd of 0.15 nM.
The matching figures for “D3H44 Fab heterodimer, H S186K / L S131E”: 0.05 and 0.14 nM.
On to “D3H44 Fab heterodimer, H S186R / L Q124E_T178E_T180E”, for which the Change in KD with respect to wild type (-(log(KD design) - log(KD wt))) was found to be 0.49 and the Kd was 0.05 nM.

The term Kd denotes the free concentration of one partner at which half of the binding sites on the other are occupied at equilibrium, for simple one-to-one binding. A higher Kd goes with weaker binding.

For the origin of these results see patent US11306156.
